Consider one molecule from article PMC5303273, “Rab1 interacts with GOLPH3 and controls Golgi structure and contractile ring constriction during cytokinesis in Drosophila melanogaster” (Open Biology, 2017).

The assay has as its target T1, 6XHis-GOLPH3 (Drosophila melanogaster, UniProt Q9VQ93 1-294).
T1 construct: Drosophila GOLPH3 made with the pET Directional TOPO Expression kit; also called 6XHis-tagged GOLPH3; recombinant GOLPH3; source: recombinant (pET Directional TOPO Expression kit), purified (cOmplete His-Tag Purification Resin)
Briefly: pull-down; GST-Rab protein on glutathione beads loaded with GMP-PNP (GTP), incubated with recombinant 6XHis-GOLPH3 for 5 h at 4°C; blot with anti-6XHis. To be noted: both partners purified.

T1 sequence (Q9VQ93 whole entry): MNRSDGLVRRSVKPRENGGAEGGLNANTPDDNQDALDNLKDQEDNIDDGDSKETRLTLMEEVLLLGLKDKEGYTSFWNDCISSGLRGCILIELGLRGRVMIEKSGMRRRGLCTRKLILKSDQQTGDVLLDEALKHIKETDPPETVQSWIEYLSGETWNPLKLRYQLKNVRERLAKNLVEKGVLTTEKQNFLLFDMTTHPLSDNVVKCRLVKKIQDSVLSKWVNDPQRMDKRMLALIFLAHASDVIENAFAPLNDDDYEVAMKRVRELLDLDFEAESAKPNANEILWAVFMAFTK

B1: GST-Rab1 (natural protein)
chain: not shown
notes: full-length cDNA of Drosophila Rab1 cloned into pGEX-6p-2; In the direct pull-down the protein on the beads was loaded with GDP-beta-S or GMP-PNP; also called GST-full-length Drosophila Rab1; source: BL21-CodonPlus (DE3), purified (Glutathione-Sepharose 4B beads)
As to B1, the binding result is recorded as “binds”.
